Laboratory results from patent US20210292393A1 (published 2021).

B1: antibody 420 (antibody, V domains shown)
VH: QVQLVESGGGVVQPGRSLRLSCAASGFTFSSYGMHWVRQAPGKGLEWVAVIWYDGSNKYYADSVKGRFTISRDNSKNTLYLQMNSLRAEDTAVYYCAKDGGDYGDVNFDYWGQGTLVTVSS
VL: SYELTQPPSVSVSPGQTARITCSGDALPKQYAYWYQQKPGQAPVLVIYKDSERPSGIPERFSGSSSGTTVTLTISGVQAEDEADYYCQSAGSSGNYKVFGGGTKLTVL
B2: antibody 431 (antibody, V domains shown)
VH: QVQLVESGGGVVQPGRSLRLSCAASGFTFSSYAMHWVRQAPGKGLEWLAVISYDGSNKYYADSVKGRFTISRDNSKNTLYLQMNSLRAEDTAVYYCARSFRGGYYYGMDVWGQGTTVTVSS
VL: DIQLTQSPSFLSASVGDRVTITCRASQGISSYLAWYQQKPGKAPKLLIYAASTLQSGVPSRFSGSGSGTEFTLTISSLQPEDFATYYCQQLNSYPLFTFGPGTKVDIK
B3: antibody 395 (antibody, V domains shown)
VH: QVQLVQSGSELKKPGASVKLSCQASGYTFSNHAMNWVRQAPGQGLEWMGWINTNTGNPTYAQGFTGRFVFSLDTSVGTAYLHISSLKAEDTAFYYCARASARPGVATNLDFWGQGTLVVVSS
VL: DIQMTQSPSSLSASVGDRVTITCRTSQNIDNYLNWYQQKPGKAPNLLIYAASRLHSGVPSRFSGSGSGTDFTLIISSLQPEDLATYYCQQSYSNPLTFGPGTKVDIR
B4: antibody 385 (antibody, V domains shown)
VH: QVQLVESGGGVVQPGRSLRLSCAASGFTFSSYAIHWVRQAPGKGLEWVAVISYDGSNKYYADSVKGRFTISRDNSKNTLYLQMNSLRAEDTAVYYCARPRSGSYWGAFDIWGQGTMVTVSS
VL: QSVLTQPPSVSGAPGQRVTISCTGSSSNIGARYDVHWYQQLPGTAPKLLIYGNSNRPSGVPDRFSGSKSGTSASLAITGLQAEDEADYYCQSYDSSLRGVFGGGTKLTVL
B5: antibody 421 (antibody, V domains shown)
VH: QVQLVESGGGVVQPGRSLRLSCAASGFTFSTYAMHWVRQAPGKGLEWVAVISYDGSNKYYADSVKGRFTISRDNSKNTLYLQMNSLRAEDTAVYYCARGYGSGSYYPLYLYWGQGTLVTVSS
VL: not shown
B6: antibody 405 (antibody, V domains shown)
VH: not shown
VL: QSALTQPRSVSGSPGQSVTISCTGTSSDVGGYNYVSWYQQHPGKAPKLMIYDVSKRPSGVPDRFSGSKSGNTASLTISGLQAEDEADYYCCSYAGSYNVVFGGGTKLTVL
B7: antibody 423 (antibody, V domains shown)
VH: EVQLVESGGGLIQPGGSLRISCAASGFTVRNNHMSWVRQAPGKGLEWVSVFYRGGTTYYADSVKGRFTISRDDSKNTVDLQMNSLRGEDTAVYYCARGLSVAASGYFDCWGQGTLVTVSS
VL: DIQMTQSPSSVSASVGDTVTITCRANQGISSWLAWYQQVPGKAPELLIYATSTLQSGVPSRFSGSGSGTDFTLTISSLQPEDFATYYCQQANSFPFTFGPGTKVDIK
B8: antibody 422 (antibody, V domains shown)
VH: QVQLVQSGSELKKPGASVKVSCKASGYTFTSYAMNWVRQAPGQGLEWMGWINTNTGNPTYAQGFTGRFVFSLDTSVSTTYLQISSLKAEDTAVYYCARVIGVVTYYYYGMDVWGQGTTVTVSS
VL: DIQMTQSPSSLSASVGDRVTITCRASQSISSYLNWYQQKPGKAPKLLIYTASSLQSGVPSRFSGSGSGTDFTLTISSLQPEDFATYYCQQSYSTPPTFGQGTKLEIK
B9: antibody 409 (antibody, V domains shown)
VH: QVTLRESGPALVKPTQTLTLTCTFSGFSLSTSGMCVSWIRQPPGKALEWLALIDWDDDKYYSTSLKTRLTISKDTSKNQVVLTMTNMDPVDTATYYCARTTYYYVSGRRAEFDPWGQGTLVTVSS
VL: NFMLTQPHSVSESPGKTVTISCTGSSGSIASNYVQWYQQRPGSAPTTVIYEDNQRPSGVPDRFSGSIDSSSNSASLTISGLKTEDEADYYCQSYDSSNQGVFGGGTKLTVL
B10: anti-SARS-CoV-2 antibody 476 (antibody, V domains shown)
VH: QVQLVQSGSELKKPGASVKVSCKASGYTFTSYAMNWVRQAPGQGLEWMGWINTNTGNPTYAQGFTGRFVFSLDTSVSTAYLQISSLKAEDTGVYYCARDHELPNSSSWFGHFEYWGQGTLVTVSS
VL: SYELTQPPSVSVSPGQTARITCSGDALPKQYAYWYQQKAGQAPVLVIYKDSERRSGIPERFSGSSSGTTVTLTISGVQAEDEADYYCQSADSSGTSVVFGGGTKLTVL
B11: anti-SARS-CoV-2 antibody 480 (antibody, V domains shown)
VH: QVQLVESGGGVVQPGRSLRLSCAASGFTFSSYAMHWVRQAPGKGLEWVAVISYDGNNKYYADSVKGRFTISRDNSKNTLYLQMNSLRAEDTAVYYCVRTNSGSYYAAFDYWGQGTLVTVSS
VL: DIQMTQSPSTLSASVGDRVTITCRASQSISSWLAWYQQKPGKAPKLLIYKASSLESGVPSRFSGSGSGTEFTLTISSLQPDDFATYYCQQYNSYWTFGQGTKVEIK
B12: anti-SARS-CoV-2 antibody 492 (antibody, V domains shown)
VH: QVQLVESGGGVVQPGRSLRLSCAASGFTFSSYGMHWVRQAPGKGLEWVAVISYDGSNKYYADSVKGRFTISRDNSKNTLYLQMNSLRAEDTAVYYCAKDGILWWWWGYFDYWGQGTLVTVSS
VL: QSVLTQPPSVSGAPGQRVTISCTGSSSNIGAGFDVHWYQQLPGTAPKLLIYGNSNRPSGVPDRFSGSKSGTSASLAITGLQAEDEADYYCQSYDSSLSVVFGGGTKLTVL
B13: anti-SARS-CoV-2 antibody 496 (antibody, V domains shown)
VH: QVQLVQSGAEVKKPGASVKVSCKASGYTFTDYYIHWVRQAPGQGLEWMGWINPNSGGTNYAQKFQGRLTMTRDTSISTAYMELSRLRSDDTAVYYCARVYSMFREFIINPYYYYYGLDVWGQGTTVTVSS
VL: QSALTQPASVSGSPRQSITISCTGTSSDVGSYNLVSWYQQHPGKAPKLMIYEGSKRPSGVSNRFSGSKSGNTASLAISGLQAEDEANYYCCSYAGSSTLVFGGGTKLTVL
B14: anti-SARS-CoV-2 antibody 477 (antibody, V domains shown)
VH: QVQLVESGGGVVQPGRSLRLSCAASGITFSSYAMHWVRQAPGKGLEWVAVISYDGSDKYHADSVKGRFAISRDNSKNTLYLQMNSLRAEDTAVYYCAKDKGIAVAGTGWIRPDPEYYFDYWGQGTLVTVSS
VL: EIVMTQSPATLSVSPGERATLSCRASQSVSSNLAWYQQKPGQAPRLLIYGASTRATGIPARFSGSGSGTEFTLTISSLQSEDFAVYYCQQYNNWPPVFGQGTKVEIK
B15: anti-SARS-CoV-2 antibody 475 (antibody, V domains shown)
VH: QVQLVESGGGVVQPGRSLRLSCAASGFTFSSYAMHWVRQAPGKGLEWVTFISHEGSNKYYADSVKGRFTISRDNSKNTLYLQMNSLRAEDTAVYYCARTFEYSSSSATGDFDYWGQGTLVTVSS
VL: QSVLTQPPSVSGAPGQRVTISCTGSSSNIGAGYDVHWYQQLPGTAPKLLIYGNSNRPSGVPDRFSGSKSGTSASLAITGLQAEDEADYYCQSYDSSLSGVVFGGGTKLTVL
B16: anti-SARS-CoV-2 antibody 497 (antibody, V domains shown)
VH: QVQLQESGPGLVKPSQTLSLTCTVSGGSINSFGYYWSWIRQHPGKGLEWIGYIYYSGSTDYNPSLNSRVTISLDTSKNQFLLKLTSVTAADTAVYYCAKLTDYYDSSGYSFDYWGQGTLVTVSS
VL: DIQMTQSPSSVSASVGDRVTITCRASQDISRWLAWYQQKPGKAPKLLIYAASSLQSGVPSRFSGRGSGTELTLTISSLQPEDFATYFCQQAYSFPFTFGGGTKVEIK

Each binder was assayed against SARS-CoV-2 full length spike protein, wild type, expressed on the surface of transiently transfected CHO cells (SARS-CoV-2, UniProt P0DTC2 14-1273).
B1 was tested, and the “median fluorescence fold over isotype control” value was 1.99 fold over isotype.
For B2, the “median fluorescence fold over isotype control” value was 10.7 fold over isotype.
B3 was tested, and the “median fluorescence fold over isotype control” value was 7.8 fold over isotype.
For B4, the “median fluorescence fold over isotype control” value was 10.5 fold over isotype.
With B5 the “median fluorescence fold over isotype control” value was 9.23 fold over isotype.
B6 was tested, and the “median fluorescence fold over isotype control” value was 9.7 fold over isotype.
With B7 the “median fluorescence fold over isotype control” value was 14.6 fold over isotype.
For B8, the “median fluorescence fold over isotype control” value was 19.6 fold over isotype.
For B9, the “median fluorescence fold over isotype control” value was 13.8 fold over isotype.

Each binder was assayed against SARS-CoV-2 spike (S) protein, full length, wild type (SARS-CoV-2, UniProt P0DTC2 14-1208).
For B10, the “median fluorescence fold over isotype” value was 902 fold over isotype.
B11 was tested, and the “median fluorescence fold over isotype” value was 690 fold over isotype.
In the case of B12, the “median fluorescence fold over isotype” value is reported as 664 fold over isotype.
For B13, the “median fluorescence fold over isotype” value was 1090 fold over isotype.
In the case of B14, the “median fluorescence fold over isotype” value is reported as 847 fold over isotype.
With B15 the “median fluorescence fold over isotype” value was 683 fold over isotype.
With B16 the “median fluorescence fold over isotype” value was 630 fold over isotype.
